Laboratory results as given in IntAct's records for PubMed 18093920.

B1: Syndecan-4 (Homo sapiens), P31431 (parent)
chain: MAPARLFALLLFFVGGVAESIRETEVIDPQDLLEGRYFSGALPDDEDVVGPGQESDDFELSGSGDLDDLEDSMIGPEVVHPLVPLDNHIPERAGSGSQVPTEPKKLEENEVIPKRISPVEESEDVSNKVSMSSTVQGSNIFERTEVLAALIVGGIVGILFAVFLILLLMYRMKKKDEGSYDLGKKPIYKKAPTNEFYA
B2: Syndecan-1 (Homo sapiens), P18827 (parent)
chain: MRRAALWLWLCALALSLQPALPQIVATNLPPEDQDGSGDDSDNFSGSGAGALQDITLSQQTPSTWKDTQLLTAIPTSPEPTGLEATAASTSTLPAGEGPKEGEAVVLPEVEPGLTAREQEATPRPRETTQLPTTHLASTTTATTAQEPATSHPHRDMQPGHHETSTPAGPSQADLHTPHTEDGGPSATERAAEDGASSQLPAAEGSGEQDFTFETSGENTAVVAVEPDRRNQSPVDQGATGASQGLLDRKEVLGGVIAGGLVGLIFAVCLVGFMLYRMKKKDEGSYSLEEPKQANGGAYQKPTKQEEFYA
B3: Syndecan-2 (Homo sapiens), P34741 (parent)
chain: MRRAWILLTLGLVACVSAESRAELTSDKDMYLDNSSIEEASGVYPIDDDDYASASGSGADEDVESPELTTSRPLPKILLTSAAPKVETTTLNIQNKIPAQTKSPEETDKEKVHLSDSERKMDPAEEDTNVYTEKHSDSLFKRTEVLAAVIAGGVIGFLFAIFLILLLVYRMRKKDEGSYDLGERKPSSAAYQKAPTKEFYA
partner: B2 chain
B4: Syndecan-2 (Homo sapiens), P34741 (parent)
chain: B3 chain
partner: B1 chain
B5: Syndecan-3 (Homo sapiens), O75056 (parent)
chain: MKPGPPHRAGAAHGAGAGAGAAAGPGARGLLLPPLLLLLLAGRAAGAQRWRSENFERPVDLEGSGDDDSFPDDELDDLYSGSGSGYFEQESGIETAMRFSPDVALAVSTTPAVLPTTNIQPVGTPFEELPSERPTLEPATSPLVVTEVPEEPSQRATTVSTTMATTAATSTGDPTVATVPATVATATPSTPAAPPFTATTAVIRTTGVRRLLPLPLTTVATARATTPEAPSPPTTAAVLDTEAPTPRLVSTATSRPRALPRPATTQEPDIPERSTLPLGTTAPGPTEVAQTPTPETFLTTIRDEPEVPVSGGPSGDFELPEEETTQPDTANEVVAVGGAAAKASSPPGTLPKGARPGPGLLDNAIDSGSSAAQLPQKSILERKEVLVAVIVGGVVGALFAAFLVTLLIYRMKKKDEGSYTLEEPKQASVTYQKPDKQEEFYA
B6: Syndecan-2 (Homo sapiens), P34741 (parent)
chain: B3 chain
B7: Syndecan-3 (Homo sapiens), O75056 (parent)
chain: B5 chain
partner: B1 chain

Variants of: B1
Settings: with sdc2_human SDC2, P34741

| Variant | effect of a mutation on the interaction |
| --- | --- |
| MAPARLFALLLFFVGGVAESIRETEVIDPQDLLEGRYFSGALPDDEDVVGPGQESDDFELSGSGDLDDLEDSMIGPEVVHPLVPLDNHIPERAGSGSQVPTEPKKLEENEVIPKRISPVEESEDVSNKVSMSSTVQGSNIFERTEVLAALIVGGIVLILFAVFLILLLMYRMKKKDEGSYDLGKKPIYKKAPTNEFYA | decreasing interaction |
| MAPARLFALLLFFVGGVAESIRETEVIDPQDLLEGRYFSGALPDDEDVVGPGQESDDFELSGSGDLDDLEDSMIGPEVVHPLVPLDNHIPERAGSGSQVPTEPKKLEENEVIPKRISPVEESEDVSNKVSMSSTVQGSNIFERTEVLAALIVLGIVGILFAVFLILLLMYRMKKKDEGSYDLGKKPIYKKAPTNEFYA | decreasing interaction |

Variants of: B1
Settings: with sdc3_human SDC3, O75056

| Variant | effect of a mutation on the interaction |
| --- | --- |
| MAPARLFALLLFFVGGVAESIRETEVIDPQDLLEGRYFSGALPDDEDVVGPGQESDDFELSGSGDLDDLEDSMIGPEVVHPLVPLDNHIPERAGSGSQVPTEPKKLEENEVIPKRISPVEESEDVSNKVSMSSTVQGSNIFERTEVLAALIVGGIVLILFAVFLILLLMYRMKKKDEGSYDLGKKPIYKKAPTNEFYA | decreasing interaction |
| MAPARLFALLLFFVGGVAESIRETEVIDPQDLLEGRYFSGALPDDEDVVGPGQESDDFELSGSGDLDDLEDSMIGPEVVHPLVPLDNHIPERAGSGSQVPTEPKKLEENEVIPKRISPVEESEDVSNKVSMSSTVQGSNIFERTEVLAALIVLGIVGILFAVFLILLLMYRMKKKDEGSYDLGKKPIYKKAPTNEFYA | decreasing interaction |

Variants of: B2
Settings: with sdc2_human SDC2, P34741

| Variant | effect of a mutation on the interaction |
| --- | --- |
| MRRAALWLWLCALALSLQPALPQIVATNLPPEDQDGSGDDSDNFSGSGAGALQDITLSQQTPSTWKDTQLLTAIPTSPEPTGLEATAASTSTLPAGEGPKEGEAVVLPEVEPGLTAREQEATPRPRETTQLPTTHLASTTTATTAQEPATSHPHRDMQPGHHETSTPAGPSQADLHTPHTEDGGPSATERAAEDGASSQLPAAEGSGEQDFTFETSGENTAVVAVEPDRRNQSPVDQGATGASQGLLDRKEVLGGVIALGLVGLIFAVCLVGFMLYRMKKKDEGSYSLEEPKQANGGAYQKPTKQEEFYA [G259L] | decreasing interaction |
| MRRAALWLWLCALALSLQPALPQIVATNLPPEDQDGSGDDSDNFSGSGAGALQDITLSQQTPSTWKDTQLLTAIPTSPEPTGLEATAASTSTLPAGEGPKEGEAVVLPEVEPGLTAREQEATPRPRETTQLPTTHLASTTTATTAQEPATSHPHRDMQPGHHETSTPAGPSQADLHTPHTEDGGPSATERAAEDGASSQLPAAEGSGEQDFTFETSGENTAVVAVEPDRRNQSPVDQGATGASQGLLDRKEVLGGVIAGGLVLLIFAVCLVGFMLYRMKKKDEGSYSLEEPKQANGGAYQKPTKQEEFYA [G263L] | decreasing interaction |

Variants of: B2
Settings: with sdc3_human SDC3, O75056

| Variant | effect of a mutation on the interaction |
| --- | --- |
| MRRAALWLWLCALALSLQPALPQIVATNLPPEDQDGSGDDSDNFSGSGAGALQDITLSQQTPSTWKDTQLLTAIPTSPEPTGLEATAASTSTLPAGEGPKEGEAVVLPEVEPGLTAREQEATPRPRETTQLPTTHLASTTTATTAQEPATSHPHRDMQPGHHETSTPAGPSQADLHTPHTEDGGPSATERAAEDGASSQLPAAEGSGEQDFTFETSGENTAVVAVEPDRRNQSPVDQGATGASQGLLDRKEVLGGVIALGLVGLIFAVCLVGFMLYRMKKKDEGSYSLEEPKQANGGAYQKPTKQEEFYA [G259L] | decreasing interaction |
| MRRAALWLWLCALALSLQPALPQIVATNLPPEDQDGSGDDSDNFSGSGAGALQDITLSQQTPSTWKDTQLLTAIPTSPEPTGLEATAASTSTLPAGEGPKEGEAVVLPEVEPGLTAREQEATPRPRETTQLPTTHLASTTTATTAQEPATSHPHRDMQPGHHETSTPAGPSQADLHTPHTEDGGPSATERAAEDGASSQLPAAEGSGEQDFTFETSGENTAVVAVEPDRRNQSPVDQGATGASQGLLDRKEVLGGVIAGGLVLLIFAVCLVGFMLYRMKKKDEGSYSLEEPKQANGGAYQKPTKQEEFYA [G263L] | decreasing interaction |

Variants of: B3
Settings: with sdc1_human SDC1, P18827

| Variant | effect of a mutation on the interaction |
| --- | --- |
| MRRAWILLTLGLVACVSAESRAELTSDKDMYLDNSSIEEASGVYPIDDDDYASASGSGADEDVESPELTTSRPLPKILLTSAAPKVETTTLNIQNKIPAQTKSPEETDKEKVHLSDSERKMDPAEEDTNVYTEKHSDSLFKRTEVLAAVIAGGVILFLFAIFLILLLVYRMRKKDEGSYDLGERKPSSAAYQKAPTKEFYA [G156L] | decreasing interaction |
| MRRAWILLTLGLVACVSAESRAELTSDKDMYLDNSSIEEASGVYPIDDDDYASASGSGADEDVESPELTTSRPLPKILLTSAAPKVETTTLNIQNKIPAQTKSPEETDKEKVHLSDSERKMDPAEEDTNVYTEKHSDSLFKRTEVLAAVIALGVIGFLFAIFLILLLVYRMRKKDEGSYDLGERKPSSAAYQKAPTKEFYA [G152L] | decreasing interaction |

Variants of: B4
Settings: with sdc4_human SDC4, P31431

| Variant | effect of a mutation on the interaction |
| --- | --- |
| MRRAWILLTLGLVACVSAESRAELTSDKDMYLDNSSIEEASGVYPIDDDDYASASGSGADEDVESPELTTSRPLPKILLTSAAPKVETTTLNIQNKIPAQTKSPEETDKEKVHLSDSERKMDPAEEDTNVYTEKHSDSLFKRTEVLAAVIALGVIGFLFAIFLILLLVYRMRKKDEGSYDLGERKPSSAAYQKAPTKEFYA [G152L] | decreasing interaction |
| MRRAWILLTLGLVACVSAESRAELTSDKDMYLDNSSIEEASGVYPIDDDDYASASGSGADEDVESPELTTSRPLPKILLTSAAPKVETTTLNIQNKIPAQTKSPEETDKEKVHLSDSERKMDPAEEDTNVYTEKHSDSLFKRTEVLAAVIAGGVILFLFAIFLILLLVYRMRKKDEGSYDLGERKPSSAAYQKAPTKEFYA [G156L] | decreasing interaction |

Variants of: B5
Settings: with sdc2_human SDC2, P34741

| Variant | effect of a mutation on the interaction |
| --- | --- |
| MKPGPPHRAGAAHGAGAGAGAAAGPGARGLLLPPLLLLLLAGRAAGAQRWRSENFERPVDLEGSGDDDSFPDDELDDLYSGSGSGYFEQESGIETAMRFSPDVALAVSTTPAVLPTTNIQPVGTPFEELPSERPTLEPATSPLVVTEVPEEPSQRATTVSTTMATTAATSTGDPTVATVPATVATATPSTPAAPPFTATTAVIRTTGVRRLLPLPLTTVATARATTPEAPSPPTTAAVLDTEAPTPRLVSTATSRPRALPRPATTQEPDIPERSTLPLGTTAPGPTEVAQTPTPETFLTTIRDEPEVPVSGGPSGDFELPEEETTQPDTANEVVAVGGAAAKASSPPGTLPKGARPGPGLLDNAIDSGSSAAQLPQKSILERKEVLVAVIVGGVVLALFAAFLVTLLIYRMKKKDEGSYTLEEPKQASVTYQKPDKQEEFYA [G396L] | decreasing interaction |
| MKPGPPHRAGAAHGAGAGAGAAAGPGARGLLLPPLLLLLLAGRAAGAQRWRSENFERPVDLEGSGDDDSFPDDELDDLYSGSGSGYFEQESGIETAMRFSPDVALAVSTTPAVLPTTNIQPVGTPFEELPSERPTLEPATSPLVVTEVPEEPSQRATTVSTTMATTAATSTGDPTVATVPATVATATPSTPAAPPFTATTAVIRTTGVRRLLPLPLTTVATARATTPEAPSPPTTAAVLDTEAPTPRLVSTATSRPRALPRPATTQEPDIPERSTLPLGTTAPGPTEVAQTPTPETFLTTIRDEPEVPVSGGPSGDFELPEEETTQPDTANEVVAVGGAAAKASSPPGTLPKGARPGPGLLDNAIDSGSSAAQLPQKSILERKEVLVAVIVLGVVGALFAAFLVTLLIYRMKKKDEGSYTLEEPKQASVTYQKPDKQEEFYA [G392L] | decreasing interaction |

Variants of: B6
Settings: with sdc3_human SDC3, O75056

| Variant | effect of a mutation on the interaction |
| --- | --- |
| MRRAWILLTLGLVACVSAESRAELTSDKDMYLDNSSIEEASGVYPIDDDDYASASGSGADEDVESPELTTSRPLPKILLTSAAPKVETTTLNIQNKIPAQTKSPEETDKEKVHLSDSERKMDPAEEDTNVYTEKHSDSLFKRTEVLAAVIAGGVILFLFAIFLILLLVYRMRKKDEGSYDLGERKPSSAAYQKAPTKEFYA [G156L] | decreasing interaction |
| MRRAWILLTLGLVACVSAESRAELTSDKDMYLDNSSIEEASGVYPIDDDDYASASGSGADEDVESPELTTSRPLPKILLTSAAPKVETTTLNIQNKIPAQTKSPEETDKEKVHLSDSERKMDPAEEDTNVYTEKHSDSLFKRTEVLAAVIALGVIGFLFAIFLILLLVYRMRKKDEGSYDLGERKPSSAAYQKAPTKEFYA [G152L] | decreasing interaction |

Variants of: B7
Settings: with sdc4_human SDC4, P31431

| Variant | effect of a mutation on the interaction |
| --- | --- |
| MKPGPPHRAGAAHGAGAGAGAAAGPGARGLLLPPLLLLLLAGRAAGAQRWRSENFERPVDLEGSGDDDSFPDDELDDLYSGSGSGYFEQESGIETAMRFSPDVALAVSTTPAVLPTTNIQPVGTPFEELPSERPTLEPATSPLVVTEVPEEPSQRATTVSTTMATTAATSTGDPTVATVPATVATATPSTPAAPPFTATTAVIRTTGVRRLLPLPLTTVATARATTPEAPSPPTTAAVLDTEAPTPRLVSTATSRPRALPRPATTQEPDIPERSTLPLGTTAPGPTEVAQTPTPETFLTTIRDEPEVPVSGGPSGDFELPEEETTQPDTANEVVAVGGAAAKASSPPGTLPKGARPGPGLLDNAIDSGSSAAQLPQKSILERKEVLVAVIVGGVVLALFAAFLVTLLIYRMKKKDEGSYTLEEPKQASVTYQKPDKQEEFYA [G396L] | decreasing interaction |
